According to the supplement of paper PMC10567573:
± gives the standard deviation.

Assay: protein stability index of a GFP-peptide fusion (GPS, HEK-293T) (PSI 1-6); higher = more stable
Conditions: c terminus: a fixed tail appended
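Note: 24-mer peptide tiles fused after GFP, lentivirally expressed, FACS-sorted into six equal bins by GFP/DsRed ratio, decoded by Illumina sequencing, PSI is the read-weighted mean bin number.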

Sequence	protein stability index (treatment: DMSO)	protein stability index (treatment: MLN4924 1 uM, 8 h)
WEEAQSPANCPACREPSPKMDFKT [TRIM43]	4.56 ± 0.076	4.83 ± 0.25
IAGDEGTQIPADEDTQTDADSSAQ [TAF7L]	5.58 ± 0.27	5.45 ± 0.31
IVSHFQKLFDVPSLNGVYPRMNEV [CEP70]	2.46 ± 0.82	2.56 ± 0.53
ALVRLRETEEMLGKKQEYLENRIQ [CHMP4C]	3.02 ± 0.46	3.35 ± 0.2
FSPIAIDGMSGLAGVGLSGGAAGA [ELAVL3]	3.04 ± 0.26	3.2 ± 0.26
SKLRNYRKDLAKLHREVRSTPLTA [VTI1B]	3 ± 0.25	3.26 ± 0.26
TLRDHFKGISSHSRSSLMPLRNDV [SLC2A12]	2.96 ± 0.15	3.03 ± 0.37
LDLSEEDSDDPSVTLELSQLSMLP [VDR]	4.62 ± 0.3	4.73 ± 0.26
NRERVVSLIEDLQRELEIPEQQVD [ZNF449]	5.13 ± 0.23	5.17 ± 0.16
SDLEDMEEEEGTRSPTLEPPRGRS [SMG5]	5.37 ± 0.16	5.39 ± 0.2
FEQILSLPELKANPFKERICRVFS [CIB1]	2.25 ± 0.2	2.38 ± 0.16
EAVSTLLGAVAVFAVGYIKISWST [SLC19A2]	2.82 ± 0.21	2.98 ± 0.73
RLHLRRTTEQHVPEVEVQVKRRRT [SNURF]	4.75 ± 0.26	4.71 ± 0.35
ASLDNGGCALTTFSVLEGEKNNHR [SOAT1]	4.2 ± 0.31	4.34 ± 0.09
IERSSSFSSITDSTMSLNIITVTL [DVL3]	2.8 ± 0.42	2.85 ± 0.23
VPRTLSPHQYHSVHGVGMVPEWSD [TBX5]	3.62 ± 0.25	3.77 ± 0.16
EVPQLPPRASISHVTCVDQSEHTM [C2CD2L]	4.66 ± 0.15	4.7 ± 0.25
GAPLIRVHSSPVSSPSVSGPRRLV [SPACA3]	3.24 ± 0.31	3.6 ± 0.19
EEKEAWYREESDSLGQDLRRLRQE [DAPK3]	5.28 ± 0.31	5.35 ± 0.17
KDHSCKDNIREAFQIYDKEASGYV [EFHC1]	3.72 ± 0.31	3.81 ± 0.13
QFLFIYQLPFCGPNVIDNFLCDLY [OR4A15]	3.04 ± 0.11	2.86 ± 0.38
MVQQIQENSVEFEACLVAQCDALI [TRIM9]	2.9 ± 0.35	2.97 ± 0.36

Sequence	protein stability index (treatment: DMSO)	protein stability index (treatment: MLN4924 1 uM, 8 h)
YEFNPDFLEEAHEWNQKRARKAMR [N4BP2L1]	3.88 ± 0.2	4.19 ± 0.29
DVLSCEYYSPILDQWTPIAAMLRG [KLHL13]	2.2 ± 0.46	2.36 ± 0.23
IGRDPPAETQPQNPPAQPAPNAWQ [CLPTM1]	5.21 ± 0.31	5.02 ± 0.25
RALESELQQLRARLQGLEADCVRG [PBXIP1]	3.47 ± 0.19	3.31 ± 0.13
GSSLSGSLCSLLESQSTSLRGSYN [LURAP1L]	3.07 ± 0.14	2.87 ± 0.29
SLNGPLSTSRHVMAPVMAHVDPEE [ADAMTS4]	4.5 ± 0.25	4.49 ± 0.25
EDTHQSPEPEDEPGGPGAMTESLE [RSPH3]	5.43 ± 0.38	5.64 ± 0.14
QHEEICLGLFTLILTEPAQAQKCY [INTS3]	2.24 ± 0.46	2.32 ± 0.41
KGVQQKRPSEAQSVILRRYFLELT [DENND6A]	2.47 ± 0.098	2.57 ± 0.22
DDATCRLYDLRADREVAIYSKESI [GNB5]	3.51 ± 0.24	3.4 ± 0.17
MKVKVIPVLEDNYMYLVIEELTRE [HAGHL]	2.94 ± 0.55	2.95 ± 0.56
LLHMPQPVNPELTAGPITGLVYRL [TRIM43]	2.26 ± 0.3	2.67 ± 0.36
RDASDPLAGAALEPAGGGRSREAR [SMAD6]	5.39 ± 0.19	5.44 ± 0.2
DHKPKLCRLAKGENGYGFHLNAIR [PDZK1]	2.25 ± 0.24	2.36 ± 0.56
TFPSGSGAHFPQVPGGAVRVAAAA [PI4K2A]	3.81 ± 0.27	3.81 ± 0.32
NMSREPFSTRALVLSILHATLPGI [SOAT2]	3.18 ± 0.55	2.93 ± 0.62
EADENENITVVKGIRLSENVIDRM [CHCHD3]	4.75 ± 0.17	4.7 ± 0.11
HQGIKPYKCSWCGKSFSQNTNLHT [ZNF75A]	2.1 ± 0.002	2.52 ± 0.25
EDGFGEHPFYHCLVAEVPKEHWTP [SAT1]	3.05 ± 0.22	3.12 ± 0.27
WILLAESNSADDETDDPRRYQKYG [OAS1]	3.19 ± 0.17	3.32 ± 0.21
LPPCLLPLSPPTAPDRATAVATAS [TRIB3]	4.45 ± 0.31	4.35 ± 0.26
IEPRERAKFKRKYKVKLVEKRAFR [NOP53]	2.87 ± 0.14	3.15 ± 0.32

Sequence	protein stability index (treatment: DMSO)	protein stability index (treatment: MLN4924 1 uM, 8 h)
PTGRLPALVRWWNGIGAVLDFTHP [MYORG]	2.15 ± 0.28	2.14 ± 0.033
VILAVSYMSQVLEKEMKAQEQRLG [GMPPB]	2.27 ± 0.42	2.08 ± 0.17
MAAEIHSRPQSSRPVLLSKIEGHQ [WDFY1]	3.84 ± 0.13	3.88 ± 0.23
ETGEAARDPSLRPARTVLVGSLSW	3.06 ± 0.32	2.88 ± 0.27
KLPLPSTLRSHLKSFSMAKGLNAR [RAB40A]	2.56 ± 0.18	2.68 ± 0.15
LSIRCQHQEQVEDLTASHDAALLE [MTUS2]	4.66 ± 0.22	4.86 ± 0.19
MGQWQLEVGDPAPLGAGNLGPELI [DPCD]	3.42 ± 0.23	3.48 ± 0.2
EPELQVGIDIMKTSFPGRGSIPEF [AASDHPPT]	3.67 ± 0.22	3.61 ± 0.29
TKILVVNAAYFVGKWMKKFPESET [SERPINB5]	2.56 ± 0.6	2.53 ± 0.47
GDGKSKKKQAGRPKGSKGKEKDSP [RBBP5]	5.39 ± 0.29	5.34 ± 0.11
KVQTVIILGKVILWILHLLLECYI [TMEM192]	2.5 ± 0.62	2.35 ± 0.26
VRCEALTGELETLKERCAQDACQA [CCDC89]	4.43 ± 0.39	4.25 ± 0.18
TACLTDRGIIMTFGSGSNGCLGHG [NEK8]	2.23 ± 0.2	2.28 ± 0.32
PMYFFLGNLSVLDVGCISVTVPSM [OR3A1]	2.65 ± 0.52	3.06 ± 0.65
HGHMCIAFELLGKNTFEFLKENNF [CLK3]	2.55 ± 0.87	2.92 ± 1.3
NPQALSPQFTGILQLLQSRTSRKF [INTS3]	2.93 ± 0.22	2.98 ± 0.35
GGSTSAHYAVNSQFTMGGPAISMA [CARM1]	2.94 ± 0.55	2.94 ± 0.25
QCRHTLEQHNWNIEAAVQDRLNEQ [FAF2]	3.89 ± 0.17	3.87 ± 0.18
WVYKNKLIFFGGYGYLPEDKVLGT [KLHDC2]	2.55 ± 1.1	2.88 ± 1.4
VARSGTPAVENKQQIGDAIRMIVR [PLK2]	3 ± 0.22	3.09 ± 0.23
NKILQVFWEEHKASLGREESRAPS [CBY2]	3.02 ± 0.13	3.09 ± 0.22
